How the values were obtained:
Type in all cases: cell-based, mouse
splenic γδ T cells = assay: γδ T cell / CD8+ T cell culture with recombinant IL-38; conditions: 100 ng/mL daily, day 5, cytometric bead array
Experimental: γδ T cells and CD8+ T cells were isolated from murine spleens by fluorescence-activated cell sorting (FACS) and co-cultured at a ratio of 1:10. The cells were cultured in T-cell medium Roswell Park Memorial Institute (RPMI) 1640 with 5 mM glutamine, 100 U/mL penicillin, 100 µg/mL streptomycin, 10% heat-inactivated fetal calf serum (FCS), 1% non-essential and essential amino acids, 1% sodium pyruvate and 1% 4-(2-hydroxyethyl)-1-piperazineethanesulfonic acid (HEPES) followed by activation with mouse T-cell activator CD3/CD28 Dynabeads (Thermo Fisher Scientific), 10 ng/mL of recombinant murine (rm) IL-23 and rm IL-1β (both from Bio-Techne). Cells were supplemented with 10 ng/mL rm IL-2 (PrepoTech) at days 0, 2 and 5 and daily with 100 ng/mL rm IL-38 (AdipoGen) and 50 μM β-mercaptoethanol. Cells were cultured for up to 5 days. At the endpoint, supernatants were collected for cytokine determination and cell proliferation was analyzed by flow cytometry.
To measure the cytokines in PyMT tumors and cell culture supernatants, Cytometric Bead Array Flex Sets (BD Biosciences) were used for murine IL-17A and IFN-γ. The samples were acquired via FACS and analyzed with FlowJo Software V.10 (Tree Star).

cDC1 = cDC1 migration, Boyden chamber assay; conditions: supernatants of γδ T cells pretreated with IL-38, 2 hours
Experimental: Boyden chamber assays were performed using a 96 well-plate with 4.26 mm transwell inserts with 5.0 µm pore polycarbonate membrane (Corning). Briefly, 1.4×10^4 DC-enriched murine splenocytes (EasySep Mouse Pan-DC Enrichment Kit II, STEMCELL Technologies) were suspended in serum-free RPMI 1640 medium and added to transwell inserts. Supernatants collected after 24 hours of γδ T cells stimulation (described above) were pre-incubated with either 15 µg/mL IgG isotype control (R&D Systems) or 15 µg/mL anti-Xcl1 (R&D Systems) and added to the bottom compartment. Cells were harvested 2 hours later and migrated and non-migrated cells were analyzed by FACS. The percentage of migrated cDC1 was determined by the ratio of migrated/non-migrated cells.

γδ T cells = assay: Xcl1 production by activated γδ T cells (ELISA); conditions: 100 ng/mL, 24 hours
Experimental: γδ T cells isolated from murine spleen were cultured in T-cell medium, activated with mouse T-cell activator CD3/CD28 Dynabeads (Thermo Fisher Scientific), except for the negative control, and supplemented with 10 ng/mL rm IL-2 (PrepoTech), 100 ng/mL rm IL-38 (AdipoGen) and […] β-mercaptoethanol. Supernatants were collected 24 hours after seeding for the determination of Xcl1 levels.
Xcl1 levels were determined from supernatants collected from γδ T-cell cultures using Mouse Xcl1/Lymphotactin DuoSet ELISA Kit (R&D Systems) according to the manufacturer’s instructions.

B1: recombinant IL-38: recombinant murine IL-38 (AdipoGen) (protein)
chain: MCSLPMARYYIIKDAHQKALYTRNGQLLLGDPDSDNYSPEKVCILPNRGLDRSKVPIFLGMQGGSCCLACVKTREGPLLQLEDVNIEDLYKGGEQTTRFTFFQRSLGSAFRLEAAACPGWFLCGPAEPQQPVQLTKESEPSTHTEFYFEMSR
Splenic γδ T cells
  IFN-γ secretion in γδ T cell / CD8+ T cell co-culture: limited the secretion of IFN-γ
  IL-17 production by splenic γδ T cells: effectively suppressed IL-17 production
cDC1
  cDC1 migration towards γδ T-cell supernatants: reduced
γδ T cells
  Xcl1 levels on γδ TCR-dependent activation: suppressed

— paper PMC11367332, “Neutralizing IL-38 activates γδ T cell-dependent antitumor immunity and sensitizes for chemotherapy” (Journal for Immunotherapy of Cancer, 2024)
